What was measured:
[1] = test system: Fraction C cells (quiescent CD3 positive PBL); test: IL-2 production by T lymphocytes after prepulse on antibody; format: cell-based, human; conditions: 18 hours prepulse on immobilized antibody, then anti-CD3 OKT3
Description: Human PBL were obtained by Ficoll-Hypaque centrifugation of whole peripheral blood. Adherent cells were depleted by incubation on plastic and nonadherent cells were subjected to discontinuous centrifugation on Percoll gradients to further separate subsets of lymphocytes into medium buoyant density (fraction B) and high buoyant density (fraction C) cell populations. Prior to cell addition, wells were coated with monoclonal antibodies by addition of 0.1 ml each antibody at 5 ug/ml in PBS per microtiter well. Following antibody addition, all wells were incubated overnight at 4 degrees and each well was washed free of unbound antibody by PBS rinsing prior to addition of cells. Each cell fraction was then incubated for 18 hours on either ICR-1.1, ICR-4.2 or control antibodies to human major Histocompatibility Complex Class I (MHC Class I). For these experiments 2×10^5 cells per well were added in a volume of 0.2 ml RPMI-1640 containing 10% FCS to individual wells of a 96 well flat bottom microtiter plate (Costar, Cambridge, Mass.). After 18-20 hours incubation at 37° C., the cells were collected from the microtiter wells and washed twice in RPMI-1640 media containing 10% FCS and adjusted to 1×10^6 per ml in RPMI-1640 containing 10% FCS. […]

[2] = biological target: T1, Protein 3 (ICAM-R domains 1-3 fused to ICAM-1) (Homo sapiens, UniProt P05362+P32942, A326V/A340P/A352Q/A353P/D347N/D369N/D382A/E323K/E366P/E384Q/F374S/F385L/G339H/H327S/L386I/M337E/N363K/P354L/P357R/Q343K/Q356P/Q361L/Q393E/R388K/S322R/S330T/S335K/S367E/S390Q/S391T/T325E/T331E/V342A/V392R); test: FACS binding to COS cell transfectants; conditions: antibody 5.0 ug/ml
T1 construct: domains of ICAM-R (residues 1 to 291) fused to ICAM-1 (residues 317 to 532); ICAM-1 residues 317 to 532 (fusion partner in the same polypeptide); expressed in transfected cells; host or cells: COS cells, plasmid pcDNAAmp.RD1-3.1D4-5
T1 sequence (P32942+P05362 fused with the stated changes): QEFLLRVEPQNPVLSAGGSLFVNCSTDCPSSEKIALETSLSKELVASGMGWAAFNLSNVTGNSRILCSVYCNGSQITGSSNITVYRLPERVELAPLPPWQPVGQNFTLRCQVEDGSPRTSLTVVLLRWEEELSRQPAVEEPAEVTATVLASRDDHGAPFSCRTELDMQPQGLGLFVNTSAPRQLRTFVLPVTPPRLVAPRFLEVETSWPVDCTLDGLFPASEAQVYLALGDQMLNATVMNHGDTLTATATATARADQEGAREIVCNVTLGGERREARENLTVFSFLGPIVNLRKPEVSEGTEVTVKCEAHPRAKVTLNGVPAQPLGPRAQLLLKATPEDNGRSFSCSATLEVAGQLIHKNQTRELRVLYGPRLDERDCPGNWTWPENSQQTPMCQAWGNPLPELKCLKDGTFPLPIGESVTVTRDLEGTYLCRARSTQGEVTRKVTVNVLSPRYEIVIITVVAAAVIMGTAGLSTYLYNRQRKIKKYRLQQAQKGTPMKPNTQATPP
Text: FIG. 7 is a diagram of the chimeric proteins whose construction is outlined below. Protein number 1 contains the amino-terminal immunoglobulin-like domain of ICAM-R (residues 1 to 93) fused to ICAM-1 (residue 117 to 532). Protein number 2 contains the first two amino terminal immunoglobulin-like domains of ICAM-R (residues 1 to 190) fused to ICAM-1 (residues 216 to 532). Protein number 3 contains the first three immunoglobulin-like domains of ICAM-R (residues 1 to 291) fused to ICAM-1 (residues 317 to 532).
For the anti-ICAM-R monoclonal antibody binding assay, COS cells transfected with constructs encoding the ICAM-R chimeric proteins or control constructs were removed from the plates by EDTA treatment and aliquoted at 2.5×10^5 cells per well in a 96-well round bottom plate. Cells were washed 3 times with ice cold washing buffer (PBS containing 1% BSA and 0.05% sodium azide). Anti-ICAM-R monoclonal antibody was applied at 5.0 ug/ml in 50 ul final volume and incubated on ice for 30 minutes. Cells were then washed three times with cold washing buffer and incubated with the FITC labeled secondary antibody (sheep anti-mouse IgG F(ab′)2) at a 1:100 dilution on ice for 30 minutes in dark in 50 ul final volume. After the incubation, cells were washed again for three times in the ice cold washing buffer and resuspended in 200 ul of 1% paraformaldehyde. The samples were analyzed on a Becton-Dickinson FACScan instrument. Results of the assay are given below in Table 5 as percent positive COS cell transfectants, wherein MOPC 21 (IgG1) and UPC 10 (IgG2a) are isotype matched controls, 18E3D is an ICAM-1 specific monoclonal antibody and ICR-1.1 to ICR-9.2 are ICAM-R specific monoclonal antibodies. The reactivities of monoclonal antibodies ICR-1.1 through ICR-9.2 were assayed in a different experiment than monoclonal antibodies ICR-12.1 through ICR-17.1.

[3] = test system: CD4+ CD45RO+ / CD45RA+ T cells and plastic adherent cells; test: SEA proliferation of memory or resting T cells with accessory cells; format: cell-based, human; conditions: immobilized antibody 3 hours
Text: Because both T cells and accessory cells express high levels of ICAM-R, the inhibition of cell-cell contact dependent T cell activation during the response to SEA by ICR-1.1 could be mediated by ICR-1.1 binding to T cells, accessory cells or both. Additionally, because ICAM-R and ICAM-1 differ markedly in their expression on nonactivated T cells, it is possible that anti-ICAM-1 and anti-ICAM-R may inhibit the SEA response by targeting T cell subsets in different states of activation. Because the role of ICAM-R may differ in naive and memory cells, the ability of anti-ICAM-R antibodies to inhibit SEA induced proliferation of CD4^+ CD45RO^+ (“memory”) cells, or CD4^+ CD45RA^+ (“resting”) cells was tested. […] nonadherent PBMC (10^7 cells/ml) were incubated for 1 hour at 4° C. with a cocktail of antibodies (1μg/ml each) containing anti-CD8, anti-CD19, anti-CD11b, anti-HLA-DR (Becton Dickinson) and either anti-CD45RO (Amac) (to obtain CD45RA^+ CD4^+ cells), or anti-CD45RA (Amac) (to obtain CD45RO^+ CD4^+ cells) in coating medium. The cell suspension was washed twice with coating medium to remove unbound antibody and incubated with goat anti-mouse IgG coated magnetic beads. Cells bound to magnetic beads were then removed from the suspension using a strong magnet. […] Two hundred thousand purified memory T cells, resting T cells or plastic adherent cells were incubated on immobilized ICR-1.1, anti-ICAM-1 antibody LB-2 or anti-HLA-I antibody p10.1 (10 μg/ml) (Gerald Nepom, Virginia Mason Research Center, Seattle, Wash.) for 3 hours. The antibody treated memory or resting T cells were removed to clean wells and admixed with 2×10^4 plastic adherent cells. Antibody treated accessory cells were admixed with either untreated memory T cells or untreated resting T-cells. Each reconstituted culture was then stimulated with SEA (10 pg/ml). […]

B1: ICR-1.1: anti-ICAM-R monoclonal antibody, IgG2a, domain 1, ATCC HB 11053 (antibody, V domains shown)
VH: QVQLQQSGAELAKPGASVKMSCKASGYTFTVYWMHWVKQRPGQGLEWIGYINPNTDYTEYNQRFQDKATLTADKSSSTAYMQLSSLTSEDSAVYYCARWGGNSYGLDYWGQGTSVTVSS
VL: QIVLTQSPALMSASPGEKVTMTCSASSSVSYIYWYQQKPRSSPKPWIYLTSNLASGVPARFSGSGSGASYSLTISIMEAEDAATYYCQQWKSIPLTFGAGTKLELK
IL-2 produced relative to prepulse on negative control antibodies [1]: less than 50%
percent positive COS cell transfectants, Protein 3 [2]: 52.71%
CD45RA+ cell proliferation, pretreatment of adherent cells [3]: modest inhibition of CD45RA^+ cell proliferation
SEA response, pretreatment of CD45RA+ T cells (FIG. 14) [3]: did not affect SEA responses
SEA proliferation, pretreatment of T cells or accessory cells (FIG. 13) ([3]; versus p10.1 control): blocked proliferative responses to SEA

Source: patent US20040248211A1, “ICAM-related protein” (priority 1992, published 2004)
